{"source": "patent US11464871B2", "about": "“Methods and systems for polymer precipitation and generation of particles” (priority 2012, dated 2022)", "test": "Physical stability and re-dispersion of chilled-acetone precipitated polymer conjugate particles", "type": "physicochemical", "method": "A 600 mL beaker of 300 mL of acetone with magnetic stir bar was pre-chilled to −78° C. in a dry ice/acetone bath. A solution of polymer conjugate HG6 (2 grams), obtained without further preparation from Example 3, was added dropwise over a 4 minute period into the beaker with chilled acetone with stirring and maintained in the dry ice/acetone bath. Individual free flowing polymer particles (resembling chards or flakes) were formed (FIG. 3) and remained in suspension under stirring conditions. After 25 minutes, the chilled acetone was decanted and replaced with fresh pre-chilled acetone (300 mL at −78° C.) and stirred for an additional 30 minutes to afford a suspension of polymer particles in chilled acetone.\nFrom the polymer particles/chilled acetone suspension further steps were conducted. First, a portion of polymer particles (still in acetone) was removed from the suspension and allowed to dry at room temperature. […] A second portion of polymer particles (still in acetone) was removed from the suspension and frozen in liquid nitrogen (N2) and lyophilized for 24 hours.", "data": [{"substance": "Poly(CDDCys-PA-PEG)-Gly-CPT [HG6]", "values": [{"measurement": "Re-dispersion of lyophilized polymer particles in water", "setting": "frozen in liquid N2, lyophilized 24 hours, water, even after 24 hours and sonication", "value": "did not re-disperse in water"}, {"measurement": "Physical stability of lyophilized polymer particles in ambient environment", "setting": "lyophilized particles exposed to the ambient environment", "value": "melted into yellow oil"}, {"measurement": "Re-dispersion of lyophilized polymer particles with acetone", "setting": "lyophilized particles, with addition of acetone", "value": "re-dispersion was successful"}, {"measurement": "Physical stability of precipitated polymer particles allowed to dry", "setting": "portion removed from acetone suspension, dried at room temperature", "value": "melted into yellow oil"}, {"measurement": "Physical stability of polymer particle suspension in acetone", "setting": "still in acetone, warmed to room temperature for 72 hours", "value": "remained a stable free flowing suspension"}]}]}
